Read-outs that look alike come from different tables or passages of the source.
Columns and labels:
Assay in all cases: SPR
[1] = molecular target: recombinant full length GST-TIMAP (wt), non-phosphorylated
[2] = molecular target: double-thiophosphorylated GST-TIMAP (wt)
[3] = molecular target: mono-thiophosphorylated GST-TIMAP (wt)
[4] = molecular target: recombinant full length GST-TIMAP (wt), non-phosphorylated; remark: listed apart in the source

Ka [1]: 1.8e+06 M⁻¹
Ka [2]: 1.93e+06 M⁻¹
koff [2]: 0.000522 s⁻¹
kon [2]: 1010 M⁻¹ s⁻¹
Ka [3]: 7.39e+06 M⁻¹
koff [3]: 0.000556 s⁻¹
kon [3]: 4110 M⁻¹ s⁻¹
Ka [4]: 1.28e+06 M⁻¹
koff [4]: 0.00366 s⁻¹
kon [4]: 4680 M⁻¹ s⁻¹
Substance: recombinant PP1cβ (catalytic subunit of protein phosphatase 1, β isoform) (from UniProt P62140 1-327) (enzyme)
